Reference: article PMC3256231

Tests used:
[1] = biological target: M protein stG120.1 (Streptococcus dysgalactiae subsp. equisimilis); assay: radioligand binding; 250 µl of streptococci (10^8 bacteria per ml in PBS with 0.05% Tween 20), before and after hyaluronidase treatment, incubated 45 min with 30 ng (100,000 cpm) of 125I-labelled collagen IV; washed, radioactivity of the pellet counted; cut-off 20% bound ligand
[2] = biological target: M protein M3.22 (Streptococcus pyogenes); assay: as above
[3] = biological target: human collagen IV (immobilized, SPR) (human) (UniProt P02462); assay: SPR; human collagen IV immobilised (400 RU); recombinant M proteins injected for 2 min at 60 µl/min; apparent constants, Langmuir model for 1:1 interactions (BiaEvaluation 3.0)

Substance: 125I-labelled collagen IV (from human placenta, Sigma-Aldrich) (from UniProt P02462 173-1669; P08572 184-1712) (complex)
- percent bound ligand (% bound ligand) [1]: 56
- percent of the added collagen IV bound (% of the added collagen IV) [2]: > 20

Substance: recombinant M protein M31.5 (natural protein)
- Kd [3]: 0.6 nM

Substance: recombinant M protein M55 (from UniProt Q54840 1-550) (natural protein)
- Kd [3]: 5 nM

Substance: recombinant M protein stG2078 (natural protein)
- SPR response [3]: < 4 RU
